From article PMC9823007 come the findings set out here.

The experiment concerns the target NyxA (for SEC-MALS and SAXS) (Brucella abortus 2308) (UniProt Q2YPD9). As to the kind of experiment: SEC-MALS. For orientation: Size exclusion chromatography separates by hydrodynamic size, large species first.

Usually stoichiometry N stands for the number of molecules, sites or subunits per partner or assembly. As for “NyxA (for SEC-MALS and SAXS) (from UniProt Q2YPD9 1-129) (natural protein)”, the stoichiometry N worked out at 2.
